# Source: patent US20150315279A1 (CELLERANT THERAPEUTICS, published 2015)
# No end group written: not given here.
# Tests used:
# [1] = molecular target: T1, extracellular domain (ECD) form of IL1RAP (human, UniProt Q9NPH3 21-367); experiment: ELISA, IL1RAP captured by goat anti-human IL1RAP polyclonal, 1F5 at 1 µg/ml
# T1 construct: also called ECD of IL1RAP; ECD IL1RAP
# T1 sequence: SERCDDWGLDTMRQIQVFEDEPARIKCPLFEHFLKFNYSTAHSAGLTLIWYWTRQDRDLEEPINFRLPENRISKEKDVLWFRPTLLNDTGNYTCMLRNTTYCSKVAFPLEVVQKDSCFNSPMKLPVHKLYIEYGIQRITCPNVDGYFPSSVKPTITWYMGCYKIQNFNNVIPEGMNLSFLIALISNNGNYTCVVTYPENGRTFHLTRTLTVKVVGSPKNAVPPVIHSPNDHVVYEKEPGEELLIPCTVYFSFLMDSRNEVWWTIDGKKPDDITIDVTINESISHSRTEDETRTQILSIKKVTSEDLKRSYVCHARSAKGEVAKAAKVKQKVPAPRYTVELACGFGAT
# Method: Wells of a 96-well ELISA plate were coated with goat-anti-human IL1RAP polyclonal at 0.5 μg/ml and incubated overnight at 2-8° C. The coated wells were washed with PBS with 0.05% Tween-20, then blocked with 1% BSA. IL1RAP was added into the wells at 0.5, 1, or 2 μg/ml followed by an incubation and a 3×PBS wash. After the 3×PBS wash, antibody 1F5 was added to the wells at 1 μg/ml followed by an incubation and a 3×PBS wash. After the 3×PBS wash, donkey-anti-mouse-HRP was added to the wells at a 1:50,000 dilution followed by an incubation and a 3×PBS wash. Color was developed with TMB substrate. The reaction was quenched with acid and the plate was read at 450 nm.
# peptide AC Pep-1 = molecular target: T2, peptide AC Pep-1 (human); experiment: ELISA of hybridoma supernatant on peptide AC Pep-1
# T2 peptide: VKQKVPAPRYTVELAC
# [2] = molecular target: T3, human interleukin 1 receptor accessory protein, membrane-bound (receptor) form on cells (human, UniProt Q9NPH3 21-570); experiment: flow cytometry on BMMC or PBMC of AML patients, 1F5 at 2 µg/mL
# T3 construct: also called IL1RAP; receptor IL1RAP
# T3 sequence: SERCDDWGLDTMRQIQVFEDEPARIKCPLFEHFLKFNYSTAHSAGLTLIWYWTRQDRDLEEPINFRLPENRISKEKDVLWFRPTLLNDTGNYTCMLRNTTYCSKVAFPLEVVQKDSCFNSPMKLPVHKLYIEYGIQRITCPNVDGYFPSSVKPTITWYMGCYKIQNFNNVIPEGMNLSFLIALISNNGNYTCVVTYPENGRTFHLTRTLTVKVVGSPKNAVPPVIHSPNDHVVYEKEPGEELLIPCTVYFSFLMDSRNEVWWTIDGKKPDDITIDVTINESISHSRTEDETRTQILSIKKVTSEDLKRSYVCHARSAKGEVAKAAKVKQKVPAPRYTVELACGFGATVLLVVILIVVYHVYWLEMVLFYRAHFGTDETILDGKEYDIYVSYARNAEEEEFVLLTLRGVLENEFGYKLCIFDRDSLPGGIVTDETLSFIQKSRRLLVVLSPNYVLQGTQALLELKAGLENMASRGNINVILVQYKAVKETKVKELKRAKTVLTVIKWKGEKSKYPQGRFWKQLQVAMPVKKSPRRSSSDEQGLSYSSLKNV
# Method: Bone Marrow-Derived […] (BMMC) or Peripheral Blood Mononuclear Cells (PBMC) were isolated by Ficoll separation (GE Healthcare) from bone marrow aspirate or whole blood respectively of AML patients. Cells were resuspended in staining solution (HBSS, 1% BSA, 1 mM EDTA) to 2×10⁶ cells/mL and blocked with mouse and rat IgG prior to staining. Unconjugated IgG2a or 1F5 antibodies were added to each tube to a final concentration of 2 μg/mL. 50 μL of the cell solution was added to each tube and incubated on ice for 30 min (each stage of incubation was 30 min). Cells were washed with staining solution and resuspended in 100 μL of staining solution with a […] concentration of anti-mouse-PE secondary. Cells were washed with staining solution and resuspended in 100 μL of staining solution with 5 μL each of CD34-FITC, CD45-APC and CD38-APC (BD). Cells were washed with staining solution and resuspended in 200 μL. Cells were immediately applied to flow cytometry for analysis.
# [3] = molecular target: T4, 12-mer peptide VPAPRYTVELAC (human); experiment: ELISA, peptide adsorbed on the plate
# T4 construct: also called unconjugated peptide
# T4 peptide: VPAPRYTVELAC
# Method: Peptide was conjugated to Keyhole Limpet Hemocyanin (KLH) using methods known in the art. Unconjugated peptide, KLH-peptide, and KLH were then adsorbed onto different wells of a MAXIBIND 96-well ELISA plate, which was then blocked with 1% BSA. Anti-IL1RAP antibody 1F5 was then added to the wells followed by an incubation and a wash. After the wash, donkey-anti-mouse-HRP was added to the wells at a 1:50,000 dilution followed by an incubation and a wash. Color was developed with TMB substrate. The reaction was quenched with acid and the plate was read at 450 nm.
# [4] = molecular target: T5, soluble (secreted) form of IL1RAP in normal human serum (human, UniProt Q9NPH3 21-350); experiment: sandwich ELISA with normal human serum
# T5 construct: Natural protein captured from human serum; also called IL1RAP from NHS; natural secreted form of IL1RAP in human serum
# T5 sequence: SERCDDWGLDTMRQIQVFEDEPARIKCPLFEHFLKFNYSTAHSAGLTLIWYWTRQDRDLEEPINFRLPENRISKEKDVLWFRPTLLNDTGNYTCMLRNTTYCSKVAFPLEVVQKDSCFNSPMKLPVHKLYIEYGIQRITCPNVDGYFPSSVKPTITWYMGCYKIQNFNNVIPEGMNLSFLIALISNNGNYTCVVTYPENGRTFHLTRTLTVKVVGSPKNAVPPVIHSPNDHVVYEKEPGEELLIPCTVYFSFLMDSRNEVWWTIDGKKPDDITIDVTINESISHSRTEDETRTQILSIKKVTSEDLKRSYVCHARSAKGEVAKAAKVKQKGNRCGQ
# [5] = molecular target: T6, secreted form of IL1RAP (recombinant) (human, UniProt Q9NPH3 21-350); experiment: ELISA, antigen coated at 2 ug/ml
# T6 construct: also called recombinant form of the secreted IL1RAP; soluble IL1RAP
# T6 sequence: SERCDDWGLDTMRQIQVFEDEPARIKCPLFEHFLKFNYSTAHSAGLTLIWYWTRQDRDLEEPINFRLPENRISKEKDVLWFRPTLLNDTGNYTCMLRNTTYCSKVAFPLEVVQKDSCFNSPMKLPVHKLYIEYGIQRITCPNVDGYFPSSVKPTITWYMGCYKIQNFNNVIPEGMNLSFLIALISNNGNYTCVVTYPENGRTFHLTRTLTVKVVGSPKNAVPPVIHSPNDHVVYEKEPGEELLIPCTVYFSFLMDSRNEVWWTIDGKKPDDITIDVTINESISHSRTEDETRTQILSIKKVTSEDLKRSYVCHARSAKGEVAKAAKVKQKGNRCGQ
# Method: (§1) An ELISA was performed to further determine the specificity of monoclonal antibodies 4G9, 12F1, and 42E1. Wells of 96-well plate were coated with the secreted form of IL1RAP, ECD form of IL1RAP, ACPep-1 conjugated to KLH, or unconjugated KLH at 2 ug/ml overnight at 2-8° C. The coated wells were washed with PBS with 0.05% Tween-20, and then blocked with 1% BSA. Purified test antibodies 4G9, 12F1 and 42E1 were diluted to 20 ug/ml, added to wells coated with various proteins, and incubated at RT for 1 hr. Antibody 12G6, which binds to both the ECD and the secreted form of IL1RAP, was added as a control. Mouse IgG1 was also added as an isotype control. After incubation and PBS washes, donkey anti-mouse-HRP polyclonal antibodies were added. Color was developed with TMB substrate after incubation and PBS washes. The reaction was quenched with acid and the plate was read at 450 nm.
# [6] = molecular target: T7, ACPep-1 conjugated to KLH (human, also: conjugated to KLH, site and chemistry not given here); experiment: ELISA, antigen coated at 2 ug/ml, antibody at 20 ug/ml
# T7 construct: Peptide-carrier conjugate; also called ACPep-1-KLH; ACPep-1 conjugated KLH; not shown: Keyhole limpet hemocyanin (KLH) carrier
# T7 peptide: VKQKVPAPRYTVELAC
# Method: as §1
# [7] = molecular target: T6, secreted form of IL1RAP (recombinant); experiment: ELISA, antigen captured by goat anti-human IL1RAP polyclonal, serially diluted antibody
# Description: (§2) The binding specificity of purified 4B6 was confirmed by ELISA assays described below. Wells of 96-well plate were coated with goat-anti-human IL1RAP polyclonal antibodies to capture various forms of IL1RAP. Forms of IL1RAP captured were (a) ECD form of IL1RAP, (b) the secreted form IL1RAP, and (c) human serum containing the secreted form of IL1RAP. Each captured form was then reacted with serially diluted tested antibody 4B6, control antibody 12G6, or a mouse IgG1 isotype control antibody. After incubation and washing, wells were reacted with secondary donkey-anti-mouse-HRP polyclonal antibodies. Color was developed with TMB substrate after incubation and PBS washes.
# [8] = molecular target: T5, soluble (secreted) form of IL1RAP in …; experiment: ELISA, antigen captured from human serum by goat anti-human IL1RAP polyclonal, serially diluted antibody
# Description: as §2
binder,measurement,setting,value
"anti-receptor IL1RAP antibody clone 1F5 (antibody, V domains shown, Mouse monoclonal antibody from a hybridoma (A/J mice immunised with AC Pep-1-KLH); IgG2a was used as its control in flow cytometry; Hybridoma supernatants were used in some assays; also called anti-IL1RAP antibody 1F5; 1F5 supernatants) VH: EVKLVESGGGLVKPGASLKLSCAASGFTFSNYGMSWVRQTSDKRLEWVASISSGGGSTYYPDNVKGRFTISRENAKNTLYLQMSSLKSEDTALYYCARVLPGRWAMDYWGQGSSVTVSS VL: DVVMTQTPLSLPVSLGDQASISCRSSQSLVHINGNTYLHWYLQKPGQSPKLLIYKVSNRFSGVPDRFSGSGSGTDFTLKISRVEAEDLGVYFCSQSTHVPWTFGGGTKLEIK",binding result,[1],binds
same,binding result,peptide AC Pep-1,binds
same,binding result,[2],binds
same,binding result,[3],binds
same,binding result,[4],no binding
"monoclonal antibody 4G9 (antibody, V domains shown) VH: QVQLQQSGTELVRPGASVKLSCKASGYTFTDYEMHWVKQTPVHGLEWIGAIDPGTGGIAYNQKFKGKATLTADKSSSTAYMELRSLTSEDSAVYYCTLYDYDLAYWGQGTLVTVSA VL: DVLMTQTPLSLPVSLGDQASISCRSSQSIVHSNGNTYLEWFLQKPGQSPKLLIYTVSNRFSGVPDRFSGSGSGTDFTLKISRVEAEDLGVYYCFQGSHVPPTFGGGTKLEIK",binding result,[5],no binding (tested: 20 ug/ml)
same,binding result,[6],binds
"monoclonal antibody 4B6 (antibody, V domains shown) VH: EVKLVESGGGLVKPGGSLKLSCAASGFTFRTYAMSWVRQTPEKRLEWVASISSRGRIYYPDSVKGRFTISRDNARNILYLQMSSLRSEDTAMYYCARDGDYGSSYDYWGQGTTLTVSS VL: DIQMTQSPSSLSASLGERVSLTCRASQDIGSSLNWLQQEPDGTIKRLIYATSSLDSGVPKRFSGSRSGSDYSLTISSLESEDFVDYYCLQYASSPWTFGGGTKLEIK",binding result,[7],no binding
same,binding result,[8],no binding
